# Measurements reported in paper doi:10.1101/2024.03.15.585201 (bioRxiv, 2024).
# B1: BmrA E504A mutant (natural protein)
# chain: MPTKKQKSKSKLKPFFALVRRTNPSYGKLAFALALSVVTTLVSLLIPLLTKQLVDGFSMSNLSGTQIGLIALVFFVQAGLSAYATYALNYNGQKIISGLRELLWKKLIKLPVSYFDTNASGETVSRVTNDTMVVKELITTHISGFITGIISVIGSLTILFIMNWKLTLLVLVVVPLAALILVPIGRKMFSISRETQDETARFTGLLNQILPEIRLVKASNAEDVEYGRGKMGISSLFKLGVREAKVQSLVGPLISLVLMAALVAVIGYGGMQVSSGELTAGALVAFILYLFQIIMPMGQITTFFTQLQKSIGATERMIEILAEEEEDTVTGKQIENAHLPIQLDRVSFGYKPDQLILKEVSAVIEAGKVTAIVGPSGGGKTTLFKLLERFYSPTAGTIRLGDEPVDTYSLESWREHIGYVSQESPLMSGTIRENICYGLERDVTDAEIEKAAEMAYALNFIKELPNQFDTEVGERGIMLSGGQRQRIAIARALLRNPSILMLDAATSSLDSQSEKSVQQALEVLMEGRTTIVIAHRLSTVVDADQLLFVEKGEITGRGTHHELMASHGLYRDFAEQQLKMNADLENKAG
# Target: the molecule itself
# Assay: cryo-EM structure
protein,measurement,value
B1,stoichiometry N,2
